# B1: MF5557xMF1337 PD-L1xTT bispecific IgG (PD-L1 monovalent) (bispecific antibody, V domains shown)
# VH 1: QVQLVQSGAEVKRPGSSVKVSCKASGGTFNTYSITWVRQAPGQGLEWMGGIIPVFGTSKYAQKFQDRVTITADKSTNTAYMELSSLRSEDTAVYYCARDPSFSSSSGWFDPWGQGTLVTVSS
# VH 2: not shown
# VL: not shown
# B2: MF5576xMF1337 PD-L1xTT bispecific IgG (PD-L1 monovalent) (bispecific antibody, V domains shown)
# VH 1: QVQLVQSGSELKKPGASVKVSCKASGYTFTSHAMNWVRQAPGQGLEWMGWINPNTGNPTYAQGFTGRFVFSLDTSVSTAYLQISSLKAEDTAVYYCAIDRGYMSNWVFAEYFPHWGQGTLVTVSS
# VL: not shown
# VH 2: not shown
# B3: PG7689 (antibody, V domains shown)
# VH: QVQLVQSGAEVKKPGSSVRVSCKASGGTFNTYAINWVRQAPGQGLEWVGRIIPIFGTANYAQKFQGRVTISADKSTTTAYMELSSLRSEDTAVFYCAKDETGYSSSNFQHWGRGTLVTVSS
# VL: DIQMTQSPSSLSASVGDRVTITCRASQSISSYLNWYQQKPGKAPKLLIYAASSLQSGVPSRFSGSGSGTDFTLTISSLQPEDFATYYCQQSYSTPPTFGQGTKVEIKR
# notes: also called parental anti-PD-L1 IgG of MF6974xMF7689; MF7689 in bivalent IgG format
# B4: MF6974 as a bivalent antibody (antibody, V domains shown)
# VH: EVQLVESGGDLVQPGGSLRLSCAASGFTFNSYAMSWVRQAPGKGLEWVSTISGGGANIYYADSVKGRFTISRDNSKSTLYLQMNSLRAEDTAVYFCASPYGSGYFDVWGQGTLVTVSS
# VL: not shown
# notes: bivalent anti-PD-1 IgG; copies: 2 + 2
# B5: parental anti-PD-1 IgG PG7686 (antibody, V domains shown)
# VH: QVQLVQSGAEVKKPGSSMKVSCKASGGSFSSAVISWVRQAPGQGLEWMGMIIPVFDTASYAKKFQGRVTITADKSTNTVYMELSRLRSEDAAVYYCARGTVEATLLFDYWGRGTLVTVSS
# VL: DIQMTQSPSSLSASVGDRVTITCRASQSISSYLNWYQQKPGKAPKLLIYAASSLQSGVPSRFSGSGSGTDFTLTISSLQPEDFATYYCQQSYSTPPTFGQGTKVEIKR
# notes: bivalent monospecific IgG; also called MF7686 in bivalent IgG format; copies: 2 + 2
# B6: MF5359xMF1337 PD-L1xTT bispecific IgG (PD-L1 monovalent) (bispecific antibody, V domains shown)
# VH 1: EVQLVQSGAEVKKPGSSVKVSCKASGDTFNTYSITWVRQAPGQGLEWMGSIVPIFGTINNAQKFQGRVTITADKSANTAYMELSSLRSEDTAVYYCARDNTMVRGVDYYYMDVWGKGTMVTVSS
# VH 2: not shown
# VL: not shown
# B7: MF5382xMF1337 PD-L1xTT bispecific IgG (PD-L1 monovalent) (bispecific antibody, V domains shown)
# VH 1: EVQLVQSGAEVKNPGSSVKVSCKATGGTFNTYGTNWVRQAPGQGLEWMGGIIPIFGTANYAQKFQGRVTITADKSTTTAYMEVSSLRSEDTAVYYCARGGADMGTLDYWGQGTLVTVSS
# VH 2: not shown
# VL: not shown
# Tests used:
# [1] = target: PD-L1 on CHO cells expressing PD-L1 and a T cell activator (Promega) (UniProt Q9NZQ7 19-290); experiment: cell-based or functional assay
# [2] = target: T1, PD-L1 on activated human T cells (human, UniProt Q9NZQ7 19-290); experiment: FACS on anti-CD3 activated human T cells, goat anti-human IgG-PE, MFI [upper panel]
# T1 construct: whole, on cells
# [3] = target: T2, PD-1 on activated human T cells (human, UniProt Q15116 25-288); experiment: FACS on anti-CD3 activated human T cells, goat anti-human IgG-PE, MFI [lower panel]
# T2 construct: whole, on cells
# T2 sequence (Q15116 25-288): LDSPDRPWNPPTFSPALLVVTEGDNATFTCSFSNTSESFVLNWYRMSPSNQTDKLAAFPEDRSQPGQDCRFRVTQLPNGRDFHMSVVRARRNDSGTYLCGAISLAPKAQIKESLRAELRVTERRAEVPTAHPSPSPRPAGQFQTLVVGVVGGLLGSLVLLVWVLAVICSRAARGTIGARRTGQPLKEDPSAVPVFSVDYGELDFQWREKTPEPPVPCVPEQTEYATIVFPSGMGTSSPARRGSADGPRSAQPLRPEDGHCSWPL
# PD-L1 on CHO cells expressing PD-L1 and a T cell activator (Promega), sequence (Q9NZQ7 19-290): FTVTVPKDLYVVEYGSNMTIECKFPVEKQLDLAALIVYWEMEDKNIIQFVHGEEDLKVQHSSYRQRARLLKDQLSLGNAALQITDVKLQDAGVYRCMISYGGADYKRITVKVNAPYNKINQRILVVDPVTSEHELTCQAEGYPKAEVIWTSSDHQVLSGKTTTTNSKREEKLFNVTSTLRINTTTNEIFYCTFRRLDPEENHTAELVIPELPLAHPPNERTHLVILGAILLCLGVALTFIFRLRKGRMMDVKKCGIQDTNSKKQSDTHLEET
# T1 sequence (Q9NZQ7 19-290): as above
binder,measurement,setting,value
B1,"AUC (PD-1/PD-L1 blockade reporter assay, monovalent)",[1],3.4
B2,"AUC (PD-1/PD-L1 blockade reporter assay, monovalent)",[1],4.1
B3,EC50 (read off the curve),[2],~0.04 µg/mL
B4,EC50 (read off the curve),[3],~0.05 µg/mL
B5,EC50 (read off the curve),[3],~0.04 µg/mL
B6,"AUC (PD-1/PD-L1 blockade reporter assay, monovalent)",[1],3.9
B7,"AUC (PD-1/PD-L1 blockade reporter assay, monovalent)",[1],2.9
